Data reported in US20260258115A1 (MAPP BIOPHARMACEUTICAL, published 2026).
Changes are numbered by the printed parent chain.

B1: ADI-22759 (antibody, V domains shown)
VH: EVQLLESGGGLVKPGGSLRLSCAASGFSFSSYTMNWVRQAPGKGLEWVSSITGGSSYIDYAGSLKGRFTISRDNAKNSLYLQMNSLRVEDTAVYYCARDFPNIAVGGKTLDYWGQGTLVTVSS
VL: QPVLTQPPSVSGAPGQRVTISCTGSSSNIGAGYDVHWFQQLPGTAPKLLIYVNNNRPSGVPDRFSGSKSGTSASLAITGLQAEDEADYYCQSYDRLSAVVFGGGTKVTVL
notes: full-length IgG
B2: ADI-14355 (antibody, V domains shown)
VH: EVQLVESGPTLVKPTQTLTLTCTFSGFSLSTSGVGVGWIRQPPGKALEWLAVIYWDDDKTYSPSLKSRLTITKDTSKNQVVLTMTNMNPVDTATYYCARCPAPVYSYGVDVWGQGTTVTVSS
VL: QSALTQPASVSGSPGQSITISCTATSSDFGGYDYVSWYQQHPGEAPKLMISDVTNRPSGVSNRFSGSKSGNTASLTISGLQAEDEADYYCSSYTSYTTPYVFGTGTKLTVL
notes: full-length IgG; also called Ab 23
B3: ADI-14365 (antibody, V domains shown)
VH: QVQLVQSGAEVKKPGASVKVSCKVSGYTLTKLSMHWVRQAPGKGLEWMGFFDPEDGDTLYAQKFQGRVTMTEDTSSDTPYMELRSLRSEDTAVYYCASPAAAGQFDYWGQGTLVTVSS
VL: DIVMTQSPSSLSASVGDRVTITCRASQFISSYLHWYQQKTGKAPKLLIYAASSLQSGVPSRFSGSGSGTDFTLTISSLQPEDFATYYCQQSYNTPRTFGQGTKLEIK
notes: full-length IgG; also called Ab 33
B4: ADI-14338 (antibody, V domains shown)
VH: EVQLVESGGGVVQPGRPLRLSCAASGFTFSTYDLYWVRQAPGKGLDWVAIISPDGNKKYYADSVKGRFTISRDNSKNTLFLHMNSLRAEDTAVYYCARDYGNYFGSGSYYRYFDLWGRGTLVTVSS
VL: DIQLTQSPSSLSASVGDRVTITCRASQSISSHLNWYQQKPGKAPKLLIYASSSLQSGVPSRFSGSGSGTDFTLTISGLQPEDFATYYCQQSYSTPFTFGPGTKVEIK
notes: full-length IgG; also called Ab 6
B5: ADI-14368 (antibody, V domains shown)
VH: EVQLVESGGGLVKPGGSLRLSCAASGFTFINAWMSWVRQAPGKGLEWVGRIKSKADGGTTDDAAPVKGRFTISRDDSKNTLYLQMNSLKIEDTAVYYCATDVLPLYNWNLGWNFDLWGRGTLVTVSS
VL: SYVLTQPPSVSVAPGKTARITCGGNNIADKSVHWYQQKPGQAPVLVMYYDTDRPSGIPERFSGFNSGNTATLTISRVEAGDEADYYCQVWDSSSDHVVFGGGTKVTVL
notes: full-length IgG; also called Ab 36
B6: ADI-19482 (antibody, V domains shown)
VH: QVQLQQWGAGLLKPSETLSLTCGAFHGSFSGYYWSWIRQPPGKGLEWIGEVTHSRSTNYNPSLKSRITISVDTSRNQFSLKLNSVTAADTAVYYCARGSGEWYFDIWGRGTLVTVSS
VL: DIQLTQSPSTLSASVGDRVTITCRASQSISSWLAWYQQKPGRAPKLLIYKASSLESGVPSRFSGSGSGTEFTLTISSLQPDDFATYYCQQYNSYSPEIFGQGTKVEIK
notes: full-length IgG
B7: ADI-14350 (antibody, V domains shown)
VH: EVQLVESGPGLVKPSETLSLTCTVSGDSVSNNNYYWNWIRQSPGKGLEWIGYIYYSGSTDYNPSLKSRVTISVDTSKNQFSLNLRSVTAADTAIYFCASAPWGMFTILGVVP
VL: QSVLTQPPSVSGAPGQRVTISCTGSSSNIGAGYDVHWYQQLPGTAPKLLIYGSSNRPSGVPDRFSGSRSGTSASLAITGLQAEDEADYYCQSYDGSLGVYVFATGTKVTVL
notes: full-length IgG; also called Ab 18
B8: ADI-19480 (antibody, V domains shown)
VH: EVQLVESGGGLVKPGGSLRLSCAASGFTFSAYSMNWVRQAPGKGLEWVSSISSTTNYISYADSVKGRFTISRDNAKNSLYLQMNSLRAEDTAVYYCARDPKYYGLGTYYKDDYWGQGTLVTVSS
VL: NFMLTQPHSVSESPGKTVTISCTRSGGSIASNYVQWYQQRPGSSPTTVIYEDNQRPSGVPDRFSGSIDSSFNSASLTVSGLKTEDEADYYCQSFDNNNRWVFGGGTKLTVL
notes: full-length IgG
B9: ADI-14341 (antibody, V domains shown)
VH: QVQLVQSGGGLVQPGGSLRLSCAGSGFTFSDYEMNWVRQAPGKGLEWLSYISSSGSIIYYADSVKGRFTISRDNAKNSLYLQMNSLRAEDTGLYYCARANHRHYYGMDVWGQGTTVTVSS
VL: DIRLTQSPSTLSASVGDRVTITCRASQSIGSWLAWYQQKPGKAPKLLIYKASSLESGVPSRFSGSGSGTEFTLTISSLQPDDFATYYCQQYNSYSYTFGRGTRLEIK
notes: full-length IgG; also called Ab 9
B10: ADI-41355 (antibody, V domains shown)
VH: EVQLVESGGGLVKPGGSLRLSCTASGFTFSDYYMNWIRQAPGKGLEWVSYISGDGNTIYYTDSVKGRFTISRDNAKNSLFLQMNSLRGEDSAVYYCAGPVRGYTYGIFDYWGQGALVTVSS
VL: YYVLTQPPSVSVAPGQAARITCGGNNIGSRSVNWYQQKPGQAPVVVIYGDSVRPSGIPERFSGSNSGNTATLTFSRVEAGDEADYYCQVWETNSDHPVVFGGGTKVTVL
notes: IgG1
B11: ADI-41354 (antibody, V domains shown)
VH: EVQLLESGGGLVQPGGSLRLSCAASGFTFSSYAMSWVRQAPGKGLEWVSGISGSGGTTYYADSVKGRFTISRDNSKNTLYLQMNSLRAEDTAVYYCAKDSPVNINCGGDCDVAYWGQGTLVTVSS
VL: EIVMTQSPSSLSASVGDTVTITCQASQDISYSLNWYQQKPGKAPNLLIFDASHLQTGVPSRFSGGGDGKHFSFTISSLQPEDVATYYCQQYDSLMYTFGQGTKVEIK
notes: IgG1; also called Ab 651
B12: ADI-41360 (antibody, V domains shown)
VH: EVQLVESGGGLVQPGGSLRLSCAASGLTFSRYSMNWVRQAPGKGLEWVSYISSTGRRIQYADSVKGRFTISRDDGKNSLYLQMNSLRAEDTAVYYCARDPLNYHDNTAYWSYWGQGTLVTVSS
VL: B8 VL with G26S, S44A, F71S, V78I, F94Y, N96S, N97S, R99P, W100L
notes: IgG1; also called Ab 657
B13: ADI-25547 (antibody, V domains shown)
VH: EVQLLESGGGLIQPGGSLRLSCAASGFTVSSNYMSWVRQAPGKGLEWVSVIYSGGSTYYADSVKGRFTISRDNSKNTLYLQMNSLRAEDTAVYYCARGGIADAFDIWGQGTMVTVSS
VL: ETTLTQSPSSVSASVGDRVTITCRASQGISSWLAWYQQKPGKAPKLLIYAASSLQSGVPSRFSGSGSGTDFTLTISSLQPEDFATYYCQQANSFPRTFGQGTKLEIK
notes: full-length IgG
B14: ADI-25497 (antibody, V domains shown)
VH: EVQLLESGGGLVQPGGSLRLSCAASGFTFSSYWMSWVRQAPGKGLEWVANIKQDGSEKYYVDSVKGRFTISRDNAKNSLYLQMNSLRAEDTAVYYCARDGLLQYDFWSGYYDYWGQGTLVTVSS
VL: EIVLTQSPSSLSASVGDRVTITCRASQGISSWLAWYQQKPEKAPKSLIYAASSLQSGVPSRFSGSGSGTDFTLTISSLQPEDFATYYCQQYNSYPFTFGPGTKVDIK
notes: full-length IgG

biological target: RSV F on RSV subtype B virus (mKate-RSV B 18537) (respiratory syncytial virus B 18537, UniProt P13843 26-574); test: cell-based or functional assay

Row | Binder | Neut IC50 subtype B
1 | B1 | 0.2 µg/mL
2 | B2 | 4.72 µg/mL
3 | B3 | 0.49 µg/mL
4 | B4 | 10.2 µg/mL
5 | B5 | 1.1 µg/mL
6 | B6 | 2.24 µg/mL
7 | B7 | 4.82 µg/mL
8 | B8 | 6.25 µg/mL
9 | B9 | 17.5 µg/mL

biological target: RSV F on RSV subtype A virus (mKate-RSV A2) (respiratory syncytial virus A2, UniProt P03420 26-574); test: cell-based or functional assay

Row | Binder | Neut IC50 subtype A
10 | B1 | 0.08 µg/mL
11 | B3 | 0.8 µg/mL
12 | B6 | 1.49 µg/mL

biological target: RSV fusion glycoprotein (RSV F) on RSV-A2 virus (respiratory syncytial virus, UniProt P03420 26-574); test: cell-based or functional assay

Row | Binder | Neutralization IC50 (RSV subtype A)
13 | B10 | > 25 µg/mL
14 | B11 | > 25 µg/mL
15 | B12 | > 25 µg/mL

biological target: T1, RSV postfusion F (postF), subtype A (respiratory syncytial virus subtype A, UniProt P03420 26-513); test: BLI, IgG
T1 construct: also called Postfusion subtype A; F deltaFP

Row | Binder | Kd
16 | B1 | 25.3 nM
17 | B2 | 0.48 nM
18 | B13 | 21.5 nM
19 | B14 | 18.4 nM
20 | B3 | 10.3 nM
21 | B4 | 5.98 nM
22 | B5 | 24.5 nM
23 | B6 | 1.71 nM
24 | B7 | 0.264 nM
25 | B8 | 0.129 nM
26 | B9 | 0.713 nM

biological target: T2, RSV prefusion F (preF), subtype B (respiratory syncytial virus subtype B); test: BLI, IgG
T2 construct: also called Prefusion subtype B

Row | Binder | Kd
27 | B1 | 0.353 nM
28 | B2 | 1.25 nM
29 | B13 | 20.3 nM
30 | B14 | 14.1 nM
31 | B3 | 0.962 nM
32 | B4 | 7.04 nM
33 | B5 | 1.21 nM
34 | B6 | 1.89 nM
35 | B7 | 0.574 nM
36 | B8 | 0.383 nM

biological target: T3, RSV postfusion F (postF), subtype B (respiratory syncytial virus subtype B); test: BLI, IgG
T3 construct: also called Postfusion subtype B

Row | Binder | Kd
37 | B1 | 10.1 nM
38 | B2 | 0.37 nM
39 | B13 | 23.1 nM
40 | B14 | 14.8 nM
41 | B3 | 22.3 nM
42 | B4 | 3.14 nM
43 | B5 | 17.7 nM
44 | B6 | 0.555 nM
45 | B7 | 0.148 nM
46 | B8 | 0.119 nM
47 | B9 | 0.612 nM

biological target: RSV postfusion F (postF), F deltaFP (respiratory syncytial virus, UniProt P03420 26-513); test: BLI, IgG on sensor, 100 nM antigen

Row | Binder | Kd
48 | B10 | 1.18 nM
49 | B11 | 0.429 nM
50 | B12 | 0.358 nM

biological target: RSV prefusion F (preF), DS-Cav1 (respiratory syncytial virus, UniProt P03420 26-513); test: BLI, IgG on sensor, 100 nM antigen

Row | Binder | Kd
51 | B10 | 3.84 nM
52 | B11 | 0.771 nM
53 | B12 | 2.46 nM
